Source: patent publication US20230192842A1 (published 2023)
Substitutions are numbered along the chain they refer to.

Legend:
[1] = biological target: human CLDN3 F34A mutant on RKO KO cells (human) (UniProt O15551); assay: flow cytometry, % 906-mAb-PE positive of live cells
[2] = biological target: human CLDN3 I39A mutant on RKO KO cells (human) (UniProt O15551); assay: as above
[3] = biological target: human CLDN3 I45A mutant on RKO KO cells (human) (UniProt O15551); assay: as above
[4] = biological target: human CLDN3 K156A mutant on RKO KO cells (human) (UniProt O15551); assay: as above
Sequence of human CLDN3 K156A mutant on RKO KO cells (human) (O15551 whole entry K156A): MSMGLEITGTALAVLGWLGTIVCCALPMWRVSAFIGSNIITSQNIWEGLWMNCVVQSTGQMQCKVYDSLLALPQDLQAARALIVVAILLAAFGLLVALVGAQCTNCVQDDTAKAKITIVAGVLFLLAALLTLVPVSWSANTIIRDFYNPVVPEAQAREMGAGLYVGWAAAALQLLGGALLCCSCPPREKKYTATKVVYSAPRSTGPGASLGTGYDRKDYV

[5] = biological target: human CLDN3 N148A mutant on RKO KO cells (human) (UniProt O15551); assay: as above
Sequence of human CLDN3 N148A mutant on RKO KO cells (human) (O15551 whole entry N148A): as the sequence (O15551 whole entry K156A) above, with N148A, A156K counted along it

[6] = biological target: human CLDN3 P149A mutant on RKO KO cells (human) (UniProt O15551); assay: as above
Sequence of human CLDN3 P149A mutant on RKO KO cells (human) (O15551 whole entry P149A): as the sequence (O15551 whole entry K156A) above, with P149A, A156K counted along it

[7] = biological target: human CLDN3 P152A mutant on RKO KO cells (human) (UniProt O15551); assay: as above
Sequence of human CLDN3 P152A mutant on RKO KO cells (human) (O15551 whole entry P152A): as the sequence (O15551 whole entry K156A) above, with P152A, A156K counted along it

[8] = biological target: human CLDN3 Q155A mutant on RKO KO cells (human) (UniProt O15551); assay: as above
Sequence of human CLDN3 Q155A mutant on RKO KO cells (human) (O15551 whole entry Q155A): as the sequence (O15551 whole entry K156A) above, with Q155A, A156K counted along it

[9] = biological target: human CLDN3 Q43A mutant on RKO KO cells (human) (UniProt O15551); assay: as above
Sequence of human CLDN3 Q43A mutant on RKO KO cells (human) (O15551 whole entry Q43A): as the sequence (O15551 whole entry K156A) above, with Q43A, A156K counted along it

[10] = biological target: human CLDN3 R157A mutant on RKO KO cells (human) (UniProt O15551); assay: as above
Sequence of human CLDN3 R157A mutant on RKO KO cells (human) (O15551 whole entry R157A): as the sequence (O15551 whole entry K156A) above, with A156K, R157A counted along it

[11] = biological target: human CLDN3 S42A mutant on RKO KO cells (human) (UniProt O15551); assay: as above
Sequence of human CLDN3 S42A mutant on RKO KO cells (human) (O15551 whole entry S42A): as the sequence (O15551 whole entry K156A) above, with S42A, A156K counted along it

[12] = biological target: human CLDN3 V150A mutant on RKO KO cells (human) (UniProt O15551); assay: as above
Sequence of human CLDN3 V150A mutant on RKO KO cells (human) (O15551 whole entry V150A): as the sequence (O15551 whole entry K156A) above, with V150A, A156K counted along it

[13] = biological target: T1, human CLDN3 E153A mutant on RKO KO cells (human, UniProt O15551 1-220); assay: as above
T1 construct: Single-point alanine mutant, monoclonal RKO KO line with GFP
T1 chain: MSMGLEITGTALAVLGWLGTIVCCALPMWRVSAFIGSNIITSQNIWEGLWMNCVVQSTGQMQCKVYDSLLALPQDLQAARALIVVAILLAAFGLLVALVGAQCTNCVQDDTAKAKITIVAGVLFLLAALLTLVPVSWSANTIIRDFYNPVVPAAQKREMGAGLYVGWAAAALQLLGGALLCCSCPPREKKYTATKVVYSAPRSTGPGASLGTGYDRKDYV
Procedure: (§1) Flow cytometry. RKO KO target cells were seeded for flow cytometry as described in previous sections. Wells were topped up with flow buffer (PBS+2% FBS+2 mM EDTA+0.05% sodium azide) and plates were centrifuged at 300×g for 5 minutes. Supernatant was flicked off, cells were resuspended in 150 uL flow buffer. Plate was centrifuged at 300×g for 5 minutes. Supernatant was flicked off and cells were resuspended in 50 uL IgG block at 1:100 for 10 minutes at RT. Following incubation, plate was washed twice as above. Cells were resuspended in 50 uL of diluted antibodies (all a 1 in 300 dilution) in flow buffer, or flow buffer alone (unstained control). Cells were incubated for 30 minutes at RT. After incubation, plates were washed twice with 150 uL flow buffer. […]
(§2) Data Analysis: Flow Cytometry. Flow cytometry data was analysed using FLOWJO and further analysed in Microsoft excel and RStudio. […] Statistics for % PE-positive cells (as % of live cells) and Median Fluorescence Intensity (MFI) were calculated in FLOWJO and exported to Microsoft Excel for further analysis. […] Briefly, MFI was log 10 transformed and a mixed model was used with a fixed effect for cell line and a random effect for Plate, whilst % Parent was analysed on a linear scale in a mixed model with a fixed effect for cell line and a random effect for plate.

[14] = biological target: T2, human CLDN3 N38A mutant on RKO KO cells (human, UniProt O15551 1-220); assay: as above
T2 construct: Single-point alanine mutant, monoclonal RKO KO line with GFP
T2 chain: T1 chain with N38A, A153E
Procedure: as §1, §2

[15] = biological target: human CLDN3 F34A mutant on RKO KO cells (human) (UniProt O15551); assay: flow cytometry, 906-mAb-PE on RKO KO cells expressing the mutant
[16] = biological target: human CLDN3 P149A mutant on RKO KO cells (human) (UniProt O15551); assay: as above
[17] = biological target: T1, human CLDN3 E153A mutant on RKO KO cells; assay: as above
Procedure: (§3) Flow cytometry. RKO KO target cells were seeded for flow cytometry as described in previous sections. Wells were topped up with flow buffer (PBS+2% FBS+2 mM EDTA+0.05% sodium azide) and plates were centrifuged at 300×g for 5 minutes. Supernatant was flicked off, cells were resuspended in 150 uL flow buffer. Plate was centrifuged at 300×g for 5 minutes. Supernatant was flicked off and cells were resuspended in 50 uL IgG block at 1:100 for 10 minutes at RT. Following incubation, plate was washed twice as above. Cells were resuspended in 50 uL of diluted antibodies (all a 1 in 300 dilution) in flow buffer, or flow buffer alone (unstained control). Cells were incubated for 30 minutes at RT. After incubation, plates were washed twice with 150 uL flow buffer. Cells were then resuspended in 100 uL flow buffer containing DAPI at a 1:200 concentration as a live/dead stain. Cells were run immediately on the CYTOFLEXS. Cells were acquired on fast flow rate, with a stopping condition of 10,000 live cells (based on Total>Singlets>Live).
(§4) Cell lines for analysis included RKO KO, a CLDN3 knockout (included as a negative control), RKO KO CLDN3 mutant cells (with various single-amino acid CLDN3 mutations) and RKO KO CLDN3 WT cells (positive control). RKO KO CLDN3 mutant cell lines were selected and generated as outlined in previous sections.

[18] = biological target: T2, human CLDN3 N38A mutant on RKO KO cells; assay: as above
Procedure: as §3, §4

[19] = biological target: T1, human CLDN3 E153A mutant on RKO KO cells; assay: as above
Procedure: as §1, §2

[20] = biological target: T2, human CLDN3 N38A mutant on RKO KO cells; assay: as above
Procedure: as §1, §2

Sequence of human CLDN3 F34A mutant on RKO KO cells (human) (O15551 whole entry F34A): as the sequence (O15551 whole entry K156A) above, with F34A, A156K counted along it
Sequence of human CLDN3 I45A mutant on RKO KO cells (human) (O15551 whole entry I45A): as the sequence (O15551 whole entry K156A) above, with I45A, A156K counted along it
Sequence of human CLDN3 I39A mutant on RKO KO cells (human) (O15551 whole entry I39A): as the sequence (O15551 whole entry K156A) above, with I39A, A156K counted along it

Change in % Parent (906-mAb-PE positive cells) vs CLDN3 WT [1]: -0.95%
Change in % Parent (906-mAb-PE positive cells) vs CLDN3 WT [2]: 0.1%
Change in % Parent (906-mAb-PE positive cells) vs CLDN3 WT [3]: 0.05%
Change in % Parent (906-mAb-PE positive cells) vs CLDN3 WT [4]: 0.05%
Change in % Parent (906-mAb-PE positive cells) vs CLDN3 WT [5]: 0.1%
Change in % Parent (906-mAb-PE positive cells) vs CLDN3 WT [6]: 0.1%
Change in % Parent (906-mAb-PE positive cells) vs CLDN3 WT [7]: 0.1%
Change in % Parent (906-mAb-PE positive cells) vs CLDN3 WT [8]: 0.1%
Change in % Parent (906-mAb-PE positive cells) vs CLDN3 WT [9]: 0.1%
Change in % Parent (906-mAb-PE positive cells) vs CLDN3 WT [10]: 0.1%
Change in % Parent (906-mAb-PE positive cells) vs CLDN3 WT [11]: 0.1%
Change in % Parent (906-mAb-PE positive cells) vs CLDN3 WT [12]: 0%
Change in % Parent (906-mAb-PE positive cells) vs CLDN3 WT [13]: -94.5%
Change in % Parent (906-mAb-PE positive cells) vs CLDN3 WT [14]: -99.2%
fold change MFI vs CLDN3 WT (fold vs CLDN3 WT) [15]: 0.4
fold change MFI vs CLDN3 WT (fold vs CLDN3 WT) [16]: 2.03
binding result [17]: no binding
binding result [18]: no binding
fold change MFI vs CLDN3 WT [19]: 0.01 fold vs CLDN3 WT
fold change MFI vs CLDN3 WT [20]: 0.01 fold vs CLDN3 WT
B1: 906-mAb (anti-CLDN3 906-mAb, monoclonal antibody version of the scFv of 906-009_LNGFR) (antibody, V domains shown)
VH: QVQLVQSGAEVKKPGSSVKVSCKASGYTFTNYWVHWVRQAPGQGLEWMGRIEPNSSGSQYNEKFKNRVTITADKSTSTAYMELSSLRSEDTAVYYCARGVMVPLDYWGQGTLVTVSS
VL: DIQMTQSPSSLSASVGDRVTITCKASQDINRYIAWYQQKPGKAPKLLIHYTSTLQPGVPSRFSGSGSGTDFTLTISSLQPEDFATYYCLQYETLYSFGQGTKLEIK
